For assay [1], the target named is T1, KAAG1 disordered region peptide, PGAAAAHLPRWPPPQLAASRREA (biotin label).
T1 construct: also called KAAG1 Peptide
T1 peptide: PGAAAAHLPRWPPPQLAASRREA
Briefly: modified sandwich ELISA, grade by the table's key. The procedure:
(§1) Binder proteins were coated on the surface of a high binding capacity 96 well plate by incubating 100 μL of protein at 5 μg/mL in a coating solution (10 mM Tris pH 8.8, 50 mM NaCl), overnight at 4 C. The next morning, the coating solution was aspirated out and wells were washed once with 300 μL ELISA wash buffer (1×PBS, 0.05% Tween-20) and solution was aspirated out. The wells were blocked with 200 μL of a blocking buffer (1×PBS, 0.05% Tween-20, 3% BSA) at room temperature for 1 hour. After one hour, the blocking solution was aspirated out and 100 μL of biotinylated polypeptide in a binding buffer (1×PBS, 0.05% Tween-20, 0.5% BSA) at various concentrations was added to the appropriate well and incubated for 20 minutes. Peptide solution was aspirated out after 20 minutes and wells were washed 5 times with 300 μL of ELISA wash buffer. To detect the biotinylated peptide, 100 μL of streptavidin-HRP (50 ng/ml) was added to each well and incubated for 1 hour. The wells were subsequently washed 5 times with 300 μL of ELISA wash buffer. 100 μL of QuantaBlu Fluorogenic Peroxidase substrate solution was added to each well, incubated for 30 minutes and reaction stopped by adding 100 μL of stop solution. Fluorescent signal from each well was measured using a Biotek Cytation5 plate reader by exciting the fluorophore at […] and measuring emission at 420 nm. Fluorescent signals were plotted as a function of polypeptide concentration.
A general note: In an ELISA, binding on a coated surface is turned into a signal by an enzyme label.

For assay [2], the target named is T2, CYSLTR2 N-terminal disordered region peptide, MERKFMSLQPSISVSEMEPNGTFSNNNSRNCTIENFKREFFP (biotin label).
T2 construct: also called CysLT2; CysLT2r
T2 peptide: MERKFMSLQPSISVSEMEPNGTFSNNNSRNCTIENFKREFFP
Briefly: modified sandwich ELISA, grade by the table's key. The procedure:
as §1

The target in assay [3] is T3, Urotensin-2 receptor N-terminal peptide, MALTPESPSSFPGLAATGSSVPEPPGGPNATLNSSWASPTEPSSLEDLVATGTI (biotin label).
T3 construct: also called Urotensin IIR; GPCR2 (Urotensin II)
T3 peptide: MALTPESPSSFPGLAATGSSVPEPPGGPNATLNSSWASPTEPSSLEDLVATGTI
Briefly: modified sandwich ELISA, grade by the table's key. The method, then:
as §1

Assay [4] deals with T4, TNFRSF13B disordered region peptide, LPPELRRQRSGEVENNSDNSGRYQ (biotin label).
T4 construct: also called TNFRSF13B Peptide
T4 peptide: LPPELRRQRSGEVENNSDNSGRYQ
Briefly: modified sandwich ELISA, grade by the table's key. The procedure: as §1

Assay [5] has as its target T5, CD74 disordered region peptide (CLIP), PPKPVSKMRMATPLLMQALPMGALP (biotin label).
T5 construct: also called CD74 Peptide
T5 peptide: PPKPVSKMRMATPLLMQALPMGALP
Briefly: modified sandwich ELISA, fluorescence grade by the table's key. The procedure: as §1

A value given as a limit tells only on which side of the number the result lay.

B1: engineered scaffold protein S084 (designed binder)
chain: IKEEHVIQQSEYYTNPDQSGEFQFDFDGDEIFHVDMAKKETVWRLEEFGRFASFEAQGALANIAVDKANLEIMTKRSNYTGDTRPRFNWQLKFECHFFNGTERVRLLERCNYNQEESVRFDSDVGEYRAVTELGRPDAEYWNSQKDLLEQRRAAVDTYCRHNYGVGESFTVQRRGGSHHHHHHLE
Turning to B1, the binding result in assay [1] is “no binding (tested: <5000 (fluorescence, key))”; in assay [2], “no binding (tested: <5000 (fluorescence, key))”; in assay [3] it was “no binding (tested: <5000 (fluorescence, key))”; in assay [4], “no binding (tested: <5000 (fluorescence, key))”. The same molecule displayed a fluorescent signal in assay [5] greater than 400000 fluorescentsignal.

The values are drawn from patent US20250387450A1 (AIKIUM, published 2025).
